Experimental data from article PMC3045457, “Evolution of Acetylcholinesterase and Butyrylcholinesterase in the Vertebrates: An Atypical Butyrylcholinesterase from the Medaka Oryzias latipes” (PLoS ONE, 2011).
Where a name gives a salt, the structure may show the parent alone. Read-outs that look alike come from different tables or passages of the source.

Experiments:
[1] = target: T1, atypical BChE from O. latipes (Oryzias latipes, UniProt D5L5S0); assay: Ellman assay, COS-7 extract, three-parameter logistic fit; assay type: biochemical
T1 construct: GPI-anchored amphiphilic dimer (G2a)
T1 sequence (D5L5S0 26-589): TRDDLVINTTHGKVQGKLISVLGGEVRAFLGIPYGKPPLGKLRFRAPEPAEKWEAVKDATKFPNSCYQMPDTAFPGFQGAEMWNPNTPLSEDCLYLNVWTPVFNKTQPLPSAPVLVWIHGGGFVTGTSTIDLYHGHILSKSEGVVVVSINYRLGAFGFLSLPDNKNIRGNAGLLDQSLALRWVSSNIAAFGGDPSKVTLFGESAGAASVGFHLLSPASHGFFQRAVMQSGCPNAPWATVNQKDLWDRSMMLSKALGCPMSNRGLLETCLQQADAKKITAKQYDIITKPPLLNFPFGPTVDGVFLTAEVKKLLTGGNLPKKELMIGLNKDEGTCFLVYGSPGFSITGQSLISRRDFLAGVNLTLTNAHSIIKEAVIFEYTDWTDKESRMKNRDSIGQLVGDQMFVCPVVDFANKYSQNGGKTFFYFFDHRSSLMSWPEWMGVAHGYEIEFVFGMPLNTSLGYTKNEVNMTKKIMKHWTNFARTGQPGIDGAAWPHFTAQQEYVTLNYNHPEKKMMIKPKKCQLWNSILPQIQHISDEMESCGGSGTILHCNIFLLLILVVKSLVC
Text: Ellman assay, COS-7 extract, three-parameter logistic fit on atypical BChE from O. latipes

[2] = substrate: CCC(=O)SCC[N+](C)(C)C; assay: Ellman assay, COS-7 extract, fit with substrate inhibition (Km, Kss, b); assay type: biochemical, Oryzias latipes; settings: 100 mM NaHPO4 pH 7, 0.3 mM DTNB, 167 mM NaCl, 258 µM Triton X-100
Text: (§1) Ellman assay, COS-7 extract, fit with substrate inhibition (Km, Kss, b) on atypical BChE from O. latipes

[3] = substrate: CCCC(=O)SCC[N+](C)(C)C; assay: as above; assay type: biochemical, Oryzias latipes; settings: 100 mM NaHPO4 pH 7, 0.3 mM DTNB, 167 mM NaCl, 258 µM Triton X-100
Text: as §1

[4] = substrate: CC(=O)SCC[N+](C)(C)C; assay: as above; assay type: biochemical, Oryzias latipes; settings: 100 mM NaHPO4 pH 7, 0.3 mM DTNB, 167 mM NaCl, 258 µM Triton X-100
Text: as §1

CNC(=O)Oc1ccc2c(c1)[C@]1(C)CCN(C)[C@@H]1N2C [physostigmine, (3aS-cis)-1,2,3,3a,8,8a-hexahydro-1,3a,8-trimethylpyrrolo[2,3-b]indol-5-ol methylcarbamate]
IC50 [1]: 0.0585 µM

C=CC[N+](C)(C)c1ccc(CCC(=O)CCc2ccc([N+](C)(C)CC=C)cc2)cc1 [BW284c51, [4-[5-[4-(dimethyl-prop-2-enyl-ammonio)phenyl]-3-oxo-pentyl]phenyl]-dimethyl-prop-2-enyl-azanium dibromide]
IC50 ([1]; read-out: IC50 M): 480 µM

CC(C)NP(=O)(NC(C)C)OP(=O)(NC(C)C)NC(C)C [iso-OMPA, N-[bis(propan-2-ylamino)phosphoryloxy-(propan-2-ylamino)phosphoryl]propan-2-amine]
IC50 ([1]; read-out: IC50 M): 4580 µM

CCN(CC)C(C)CN1c2ccccc2Sc2ccccc21 (stereo not shown) [ethopropazine, 10-(2-diethylaminopropyl) phenothiazine hydrochloride]
IC50 ([1]; read-out: IC50 M): 0.898 µM

B1: atypical BChE from O. latipes (Oryzias latipes) (protein)
chain: TRDDLVINTTHGKVQGKLISVLGGEVRAFLGIPYGKPPLGKLRFRAPEPAEKWEAVKDATKFPNSCYQMPDTAFPGFQGAEMWNPNTPLSEDCLYLNVWTPVFNKTQPLPSAPVLVWIHGGGFVTGTSTIDLYHGHILSKSEGVVVVSINYRLGAFGFLSLPDNKNIRGNAGLLDQSLALRWVSSNIAAFGGDPSKVTLFGESAGAASVGFHLLSPASHGFFQRAVMQSGCPNAPWATVNQKDLWDRSMMLSKALGCPMSNRGLLETCLQQADAKKITAKQYDIITKPPLLNFPFGPTVDGVFLTAEVKKLLTGGNLPKKELMIGLNKDEGTCFLVYGSPGFSITGQSLISRRDFLAGVNLTLTNAHSIIKEAVIFEYTDWTDKESRMKNRDSIGQLVGDQMFVCPVVDFANKYSQNGGKTFFYFFDHRSSLMSWPEWMGVAHGYEIEFVFGMPLNTSLGYTKNEVNMTKKIMKHWTNFARTGQPGIDGAAWPHFTAQQEYVTLNYNHPEKKMMIKPKKCQLWNSILPQIQHISDEMESCGGSGTILHCNIFLLLILVVKSLVC
notes: GPI-anchored amphiphilic dimer (G2a)
Km [2]: 156 ± 15 µM | kcat [2]: 512 ± 40 s⁻¹ | kcat/Km [2]: 3.33e+06 ± 83300 M⁻¹ s⁻¹ | Km [3]: 72 ± 6 µM | kcat [3]: 117 ± 5 s⁻¹ | kcat/Km [3]: 1.65e+06 ± 117000 M⁻¹ s⁻¹ | Km [4]: 270 ± 18 µM | kcat [4]: 460 ± 18.3 s⁻¹ | kcat/Km [4]: 1.72e+06 ± 83300 M⁻¹ s⁻¹
